The record followed here is US20230127694A1, “NEUROPROTECTIVE PEPTIDE” (published 2023).

Non-standard residues stand in square brackets, D forms with d. No end group written: not given here.

The experiment has as its target ERK1 MAP kinase (MAPK3), mouse (mouse, UniProt Q63844). Put plainly: cell-based or functional assay.

Take Ac-GRKKRRQRRRPPQGGGGGEPRRTEGVGPGVPGEVEMVKGQPFD[dV] [CPP-RB5]: the “EC50 of phospho-ERK positive cells in striatal slices (immunohistochemistry, dose response)” value came out at 3.4 µM.
